Molecular target: recombinant human VSIG4 (rhVSIG4), construct not stated (human) (UniProt Q9Y279)
Assay: ELISA, soluble rhVSIG4 coated, streptavidin-HRP detection, background corrected

absorbance at 452 nm: 2.3 absorbance
Substance: biotinylated rhSIGLEC-7 (from UniProt Q9Y286 19-357) (ligand)
